Laboratory results as given in patent publication US20200115443A1 (TRICAN BIOTECHNOLOGY, published 2020).

Columns and labels:
VEGF-A [1] = molecular target: T1, VEGF-A (human, UniProt P15692-4 27-191, limits assumed); experiment: direct ELISA, VEGF-A coated 100 ng/well, HRP anti-human Fc detection
T1 construct: also called VEGF-A protein; human VEGF

complement C5 [2] = molecular target: T2, complement C5 (UniProt P01031 19-1676, limits assumed); experiment: direct ELISA, C5 coated 100 ng/well, HRP anti-human Fc detection
T2 construct: In the hemolysis assay the C5 is that of normal human serum; also called complement C5 protein

complement C5 [3] = molecular target: T2, complement C5; experiment: cell-based or functional assay
VEGF-A [4] = molecular target: T1, VEGF-A; experiment: cell-based or functional assay

T1 sequence (P15692 other isoform, or with tags, fused parts or gaps limits assumed): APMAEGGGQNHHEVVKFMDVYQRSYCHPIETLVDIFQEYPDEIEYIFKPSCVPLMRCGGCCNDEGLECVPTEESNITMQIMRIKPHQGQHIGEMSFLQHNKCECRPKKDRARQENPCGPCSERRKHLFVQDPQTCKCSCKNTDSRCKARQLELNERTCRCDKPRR

B1: bi-functional fusion protein C5V (other)
chain 1: QVQLVQSGAEVKKPGASVKVSCKASGYIFSNYWIQWVRQAPGQGLEWMGEILPGSGSTEYTENFKDRVTMTRDTSTSTVYMELSSLRSEDTAVYYCARYFFGSSPNWYFDVWGQGTLVTVSSASTKGPSVFPLAPCSRSTSESTAALGCLVKDYFPEPVTVSWNSGALTSGVHTFPAVLQSSGLYSLSSVVTVPSSNFGTQTYTCNVDHKPSNTKVDKTVERKCCVECPPCPAPPVAGPSVFLFPPKPKDTLMISRTPEVTCVVVDVSQEDPEVQFNWYVDGVEVHNAKTKPREEQFNSTYRVVSVLTVLHQDWLNGKEYKCKVSNKGLPSSIEKTISKAKGQPREPQVYTLPPSQEEMTKNQVSLTCLVKGFYPSDIAVEWESNGQPENNYKTTPPVLDSDGSFFLYSRLTVDKSRWQEGNVFSCSVMHEALHNHYTQKSLSLSLGGGGSGGGGSGGGGSSDTGRPFVEMYSEIPEIIHMTEGRELVIPCRVTSPNITVTLKKFPLDTLIPDGKRIIWDSRKGFIISNATYKEIGLLTCEATVNGHLYKTNYLTHRQTNTIIDVVLSPSHGIELSVGEKLVLNCTARTELNVGIDFNWEYPSSKHQHKKLVNRDLKTQSGSEMKKFLSTLTIDGVTRSDQGLYTCAASSGLMTKKNSTFVRVHEK
chain 2: DIQMTQSPSSLSASVGDRVTITCGASENIYGALNWYQQKPGKAPKLLIYGATNLADGVPSRFSGSGSGTDFTLTISSLQPEDFATYYCQNVLNTPLTFGQGTKVEIKRTVAAPSVFIFPPSDEQLKSGTASVVCLLNNFYPREAKVQWKVDNALQSGNSQESVTEQDSKDSTYSLSSTLTLSKADYEKHKVYACEVTHQGLSSPVTKSFNRGEC
EC50 (VEGF-A [1]): 0.288 nM | EC50 (complement C5 [2]): 3.57 nM | IC50, inhibition of the alternative complement pathway (hemolysis of rabbit erythrocytes by normal human serum) (complement C5 [3]): 25.3 nM | IC50, inhibition of VEGF-dependent HUVEC proliferation (MTS) (VEGF-A [4]): 0.195 nM
